# Results taken from the supplement of paper PMC10201428.
# ± gives the standard deviation of the averaged measurements.
# Experiments:
# [1] = test system: VchCAST RNA-guided transposition machinery (E. coli BL21(DE3) host, lacZ target); test: relative integration efficiency (T-RL orientation) vs wild-type transposon end (log2 (normalized fold change)); transposon end mutated: right end (5 bp flank + 75 bp right end); higher = more efficient transposition
# Procedure, shortened: (§1)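 Co-transformation of E. coli BL21(DE3) combined a pUC57 mini-transposon donor, holding barcoded pools of 1549 left-end or 1849 right-end variants, with a T7-driven plasmid encoding a CRISPR array, tniQ-cas8-cas7-cas6 and tnsA-tnsB-tnsC. After plating with 0.1 mM IPTG at 37°C for 18 h, input plasmids and genomic integration junctions were PCR-amplified and Illumina-sequenced across two biological output replicates, with four reference barcodes. Relative integration efficiency is the normalised, log-transformed output/input barcode fold change.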
# [2] = test system: VchCAST RNA-guided transposition machinery (E. coli BL21(DE3) host, lacZ target); test: relative integration efficiency (T-LR orientation) vs wild-type transposon end (log2 (normalized fold change)); transposon end mutated: right end (5 bp flank + 75 bp right end); higher = more efficient transposition
# Procedure, shortened: as §1
Sequence,relative integration efficiency (log2) [1],relative integration efficiency (log2) [2]
ACATTTGTTGATACAACCTTAAAATGATAATTACACCCTTAAATTGATAATTATCACACCCTTAAATTGATATTGCCTCTGATCATAGTCAGACCAACATTGCTACGACCCGTATTCGCACCGACAC,-1.34 ± 0.22,-0.505 ± 0.42
ACATTTGTTGATACAACGATAAAATGATAATTACACCGATAAATTGATAATTATCACACCGATAAATTGATATTGCCTCTGATCATAGTCAGACCAACATTGCTACGACCCGTATTCGCACCGACAC,-0.127 ± 0.12,0.086 ± 0.12
ACATTTGTTGATACAACGTATAAATGATAATTACACCCATAAATTGATAATTATCACACCCATAAATTGATATTGCCTCTGATCATAGTCAGACCAACATTGCTACGACCCGTATTCGCACCGACAC,-1.91 ± 0.13,-2.43 ± 0.46
ACATTTGTTGATACAACGTTAAAATGATAATTACACCCATAAATTGATAATTATCACACCCATAAATTGATATTGCCTCTGATCATAGTCAGACCAACATTGCTACGACCCGTATTCGCACCGACAC,-0.928 ± 0.01,-1.02 ± 0.3
ACATTTGTTGATACAAGCATAAAATGATAATTACACGCATAAATTGATAATTATCACACGCATAAATTGATATTGCCTCTGATCATAGTCAGACCAACATTGCTACGACCCGTATTCGCACCGACAC,-0.3912 ± 0.0011,-0.218 ± 0.08
ACATTTGTTGATACAAGGATAAAATGATAATTACACCCATAAATTGATAATTATCACACCCATAAATTGATATTGCCTCTGATCATAGTCAGACCAACATTGCTACGACCCGTATTCGCACCGACAC,-0.223 ± 0.044,-0.87 ± 0.12
ACATTTGTTGATACAAGGTAAAAATGATAATTACACCCATAAATTGATAATTATCACACCCATAAATTGATATTGCCTCTGATCATAGTCAGACCAACATTGCTACGACCCGTATTCGCACCGACAC,-2.26 ± 0.11,-2.67 ± 0.22
ACATTTGTTGATACACAACGCCCCGTCGCCGGCACAAACGCCCGGTCGCCGGCGACACAAACGCCCGGTCGCGGTAAGAGGATCATAGTCAGACCAACATTGCTACGACCCGTATTCGCACCGACAC,-7.89 ± 0.53,-5.17 ± 0.85
ACATTTGTTGATACACAACTAAAATGATAATTACACCCATAAATTGATAATTATCACACCCATAAATTGATATTGCCTCTGATCATAGTCAGACCAACATTGCTACGACCCGTATTCGCACCGACAC,-3.13 ± 0.19,-3.43 ± 1.4
ACATTTGTTGATACACACATAAAATGATAATTACACCCATAAATTGATAATTATCACACCCATAAATTGATATTGCCTCTGATCATAGTCAGACCAACATTGCTACGACCCGTATTCGCACCGACAC,-0.5621 ± 0.0046,-0.763 ± 0.33
ACATTTGTTGATACACCCATAAAATGATAATTACAACCATAAATTGATAATTATCACAACCATAAATTGATATTGCCTCTGATCATAGTCAGACCAACATTGCTACGACCCGTATTCGCACCGACAC,-0.707 ± 0.2,-0.642 ± 0.019
ACATTTGTTGATACACCCATAAATTGATAATTACAACCATAAAATGATAATTATCACAACCATAAAATGATAATTACTCTGATCATAGTCAGACCAACATTGCTACGACCCGTATTCGCACCGACAC,-0.638 ± 0.31,-0.939 ± 0.36
ACATTTGTTGATACACCCATAAATTGATAATTACAACCATAAAATGATAATTATCACAACCATAAAGTGATATTTACTCTGATCATAGTCAGACCAACATTGCTACGACCCGTATTCGCACCGACAC,-0.736 ± 0.32,-0.912 ± 0.79
ACATTTGTTGATACACCCATAAATTGATAATTACAACCATAAAATGATAATTATCACAACCATAAGTTGATATTTTCTCTGATCATAGTCAGACCAACATTGCTACGACCCGTATTCGCACCGACAC,-0.795 ± 0.13,-0.36 ± 0.66
ACATTTGTTGATACACCCATAAATTGATAATTACAACCATAAAATGATAATTATCACAACCATATATTGATATCTCCTCTGATCATAGTCAGACCAACATTGCTACGACCCGTATTCGCACCGACAC,-0.596 ± 0.35,-0.397 ± 0.063
ACATTTGTTGATACACCCATAAATTGATAATTACAACCATAAAATGATAATTATCACACCCATAAATTGATAATTACTCTGATCATAGTCAGACCAACATTGCTACGACCCGTATTCGCACCGACAC,-0.421 ± 0.15,-0.234 ± 0.37
ACATTTGTTGATACACCCATAAATTGATAATTACAACCATAAAATGATAATTATCACACCCATAAATTGATATTGCCTCTGATCATAGTCAGACCAACATTGCTACGACCCGTATTCGCACCGACAC,-0.475 ± 0.089,-0.673 ± 0.45
ACATTTGTTGATACACCCATAAATTGATAATTACAACCATAAAATGATAATTATCAGTGGGTATTTAACTATAACGCTCTGATCATAGTCAGACCAACATTGCTACGACCCGTATTCGCACCGACAC,-0.217 ± 0.012,2.58 ± 0.045

Sequence,relative integration efficiency (log2) [1],relative integration efficiency (log2) [2]
ACATTTGTTGATACACCCATAAATTGATAATTACAACCATAAAGTGATATTTATCACAACCATAAAATGATAATTACTCTGATCATAGTCAGACCAACATTGCTACGACCCGTATTCGCACCGACAC,-0.58 ± 0.22,-0.432 ± 0.17
ACATTTGTTGATACACCCATAAATTGATAATTACAACCATAAAGTGATATTTATCACAACCATAAAGTGATATTTACTCTGATCATAGTCAGACCAACATTGCTACGACCCGTATTCGCACCGACAC,-0.483 ± 0.29,-0.828 ± 0.015
ACATTTGTTGATACACCCATAAATTGATAATTACAACCATAAAGTGATATTTATCACAACCATAAGTTGATATTTTCTCTGATCATAGTCAGACCAACATTGCTACGACCCGTATTCGCACCGACAC,-0.418 ± 0.21,-0.743 ± 0.17
ACATTTGTTGATACACCCATAAATTGATAATTACAACCATAAAGTGATATTTATCACAACCATATATTGATATCTCCTCTGATCATAGTCAGACCAACATTGCTACGACCCGTATTCGCACCGACAC,-0.0337 ± 0.3,0.318 ± 0.42
ACATTTGTTGATACACCCATAAATTGATAATTACAACCATAAAGTGATATTTATCACACCCATAAATTGATAATTACTCTGATCATAGTCAGACCAACATTGCTACGACCCGTATTCGCACCGACAC,-0.494 ± 0.16,-0.96 ± 0.16
ACATTTGTTGATACACCCATAAATTGATAATTACAACCATAAAGTGATATTTATCACACCCATAAATTGATATTGCCTCTGATCATAGTCAGACCAACATTGCTACGACCCGTATTCGCACCGACAC,-0.477 ± 0.26,-0.466 ± 0.18
ACATTTGTTGATACACCCATAAATTGATAATTACAACCATAAAGTGATATTTATCAGTGGGTATTTAACTATAACGCTCTGATCATAGTCAGACCAACATTGCTACGACCCGTATTCGCACCGACAC,-0.744 ± 0.28,2.08 ± 0.1
ACATTTGTTGATACACCCATAAATTGATAATTACAACCATAAGTTGATATTTTTCACAACCATAAAATGATAATTACTCTGATCATAGTCAGACCAACATTGCTACGACCCGTATTCGCACCGACAC,-0.644 ± 0.31,-0.748 ± 0.17
ACATTTGTTGATACACCCATAAATTGATAATTACAACCATAAGTTGATATTTTTCACAACCATAAAGTGATATTTACTCTGATCATAGTCAGACCAACATTGCTACGACCCGTATTCGCACCGACAC,-0.613 ± 0.13,-0.228 ± 0.18
ACATTTGTTGATACACCCATAAATTGATAATTACAACCATAAGTTGATATTTTTCACAACCATAAGTTGATATTTTCTCTGATCATAGTCAGACCAACATTGCTACGACCCGTATTCGCACCGACAC,-0.543 ± 0.19,-0.275 ± 0.18
ACATTTGTTGATACACCCATAAATTGATAATTACAACCATAAGTTGATATTTTTCACAACCATATATTGATATCTCCTCTGATCATAGTCAGACCAACATTGCTACGACCCGTATTCGCACCGACAC,-0.626 ± 0.19,-0.393 ± 0.46
ACATTTGTTGATACACCCATAAATTGATAATTACAACCATAAGTTGATATTTTTCACACCCATAAATTGATAATTACTCTGATCATAGTCAGACCAACATTGCTACGACCCGTATTCGCACCGACAC,-0.622 ± 0.16,0.055 ± 0.036
ACATTTGTTGATACACCCATAAATTGATAATTACAACCATAAGTTGATATTTTTCACACCCATAAATTGATATTGCCTCTGATCATAGTCAGACCAACATTGCTACGACCCGTATTCGCACCGACAC,-0.708 ± 0.17,-0.56 ± 0.069
ACATTTGTTGATACACCCATAAATTGATAATTACAACCATAAGTTGATATTTTTCAGTGGGTATTTAACTATAACGCTCTGATCATAGTCAGACCAACATTGCTACGACCCGTATTCGCACCGACAC,-0.128 ± 0.33,2.821 ± 0.028
ACATTTGTTGATACACCCATAAATTGATAATTACAACCATATATTGATATCTCTCACAACCATAAAATGATAATTACTCTGATCATAGTCAGACCAACATTGCTACGACCCGTATTCGCACCGACAC,-0.747 ± 0.26,-0.825 ± 0.58
ACATTTGTTGATACACCCATAAATTGATAATTACAACCATATATTGATATCTCTCACAACCATAAAGTGATATTTACTCTGATCATAGTCAGACCAACATTGCTACGACCCGTATTCGCACCGACAC,-0.664 ± 0.34,0.11 ± 0.14
ACATTTGTTGATACACCCATAAATTGATAATTACAACCATATATTGATATCTCTCACAACCATAAGTTGATATTTTCTCTGATCATAGTCAGACCAACATTGCTACGACCCGTATTCGCACCGACAC,0.516 ± 0.26,0.798 ± 0.25
